Data as given in patent US6365126.

Target: H-Ras (UniProt P01112)
Sequence (P01112 whole entry, looked up): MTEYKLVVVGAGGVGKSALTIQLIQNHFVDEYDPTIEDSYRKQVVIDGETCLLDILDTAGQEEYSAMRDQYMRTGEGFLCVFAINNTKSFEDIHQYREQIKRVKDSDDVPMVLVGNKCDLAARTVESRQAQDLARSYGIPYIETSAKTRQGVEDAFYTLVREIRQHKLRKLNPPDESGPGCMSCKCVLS

In the case of “human NF1 catalytic domain fusion protein”, the “GTPase activity of H-Ras (GAP assay)” value is reported as “All three fusion proteins stimulated the GTPase activity of H-Ras”.
